Residue numbers refer to the chain shown, from its start.
B1: VRT-37 (Fc fusion)
chain: VTSVWTKGVTPPTNFTYGEDVLHAPYVANQGWYDITKTFNRKDNLLCGAATAGNMLHWWFDQNKEQIENYLKKHPEKQKINFKGEQLFDVKEAIDTKDSQLDSKLFEYFKEKAFPYLSTKHLGVFPDHVIDMFINGYRLSLTNHGPTPVKRGSKDKRGGIFDAVFTRGVQSKLLTNRHDFKEKTLKEISDLIKQELTEGKALGISHTYANVRINHVINLWGADFDAEGNLEAIYVTDSDTEASIGMKKYFVGVNKNGKVAISAKEIEEDNIGAQVLGLFTLSTGQDIWNQTNDKTHTCPPCPAPEAAGAPSVFLFPPKPKDTLMISRTPEVTCVVVDVSHEDPEVKFNWYVDGVEVHNAKTKPREEQQNSTYRVVSVLTVLHQDWLNGKEYKCKVSNKALKAPIEKTISKAKGQPREPQVYTLPPSRDELTKNQVSLTCLVKGFYPSDIAVEWESNGQPENNYKTTPPVLDSDGSFFLYSKLTVDKSRWQQGNVFSCSVMHEALHNHYTQKSLSLSPG
B2: VRT-43 (Fc fusion)
chain: QITSVWTKGVTPPTPEQFRYYNEDVFHAPYTAHQGWYDITKTFDGKDNLLCGAATAGNMLHWWFDQNKTEIEAYLSKHPEKQKIIFKNQELFDLKAAIDTKDSQTNSALFNYFRDKAFPGLSARQLGVFPDLVLDMFINGYYLNVFKTQSTDVNRPYQDKDKRGGIFDAVFTRGVQTTLLTARHDLKNKTLNDISTIIKQELTEGRALALSHTYANVRISHVINLWGADFNAEGNLEAIYVTDSDSRASIGMKKYFVGVNASGKVAISAKKIEGENIGAQVLGLFTLSSGKDIWQKLSDKTHTCPPCPAPEAAGAPSVFLFPPKPKDTLMISRTPEVTCVVVDVSHEDPEVKFNWYVDGVEVHNAKTKPREEQQNSTYRVVSVLTVLHQDWLNGKEYKCKVSNKALKAPIEKTISKAKGQPREPQVYTLPPSRDELTKNQVSLTCLVKGFYPSDIAVEWESNGQPENNYKTTPPVLDSDGSFFLYSKLTVDKSRWQQGNVFSCSVMHEALHNHYTQKSLSLSPG
B3: VRT-35 (Fc fusion)
chain: VTSVWTKGVTPPANFTQGEDVFHAPYKANQGWYDITKTFNRKDNLLCGAATAGNMLHWWFDQNKDQIEAYLKEHPEKQKINFKGEQLFDVKEAIDTKDDQTNSKLFEYFKEKAFPYLSTKHLGVFPDHVLDMFINGYRLSLTNHGPTPVKEGSKDKRGGIFDAVFTRGVQSKLLTSRHDFKEKTLKEISDLIKQELTEGKALALSHTYANVRINHVINLWGADFDSNGNLEAIYVTDSDTEASIGMKKYFVGVNKAGKVAISAKEIEDDNIGAQVLGLFTLSTGQDIWNQTNDKTHTCPPCPAPEAAGAPSVFLFPPKPKDTLMISRTPEVTCVVVDVSHEDPEVKFNWYVDGVEVHNAKTKPREEQQNSTYRVVSVLTVLHQDWLNGKEYKCKVSNKALKAPIEKTISKAKGQPREPQVYTLPPSRDELTKNQVSLTCLVKGFYPSDIAVEWESNGQPENNYKTTPPVLDSDGSFFLYSKLTVDKSRWQQGNVFSCSVMHEALHNHYTQKSLSLSPG
B4: VRT-36 (Fc fusion)
chain: B3 chain with K27V, A69R, D99S, N102D, A203G, N227E, E231K, E267K, D268E
B5: VRT-40 (Fc fusion)
chain: TITSVWTKGVTPPTPEDFRYYNEDVLHAPYVANQGWYDITKTFDGKDNLLCGAATAGNMLHWWFDQNKEEIERYLKKHPEKQKIIFKNQELFDVKAAIDTKDSQTNSKLFNYFRDKAFPGLSARQLGVFPDLVLDMFINGYYLNLGKTQSTDVNRPYQDKDKRGGIFDAVFTRGVQTTLLTARHDLKNKGLNEISDLIKQELTEGKALALSHTYANVRINHVINLWGADFDAEGNLIAIYVTDSDTRASIGMKKYFVGVNANGKVAISAKKIEGDNIGAQVLGLFTLSTGQDIWQKLSDKTHTCPPCPAPEAAGAPSVFLFPPKPKDTLMISRTPEVTCVVVDVSHEDPEVKFNWYVDGVEVHNAKTKPREEQQNSTYRVVSVLTVLHQDWLNGKEYKCKVSNKALKAPIEKTISKAKGQPREPQVYTLPPSRDELTKNQVSLTCLVKGFYPSDIAVEWESNGQPENNYKTTPPVLDSDGSFFLYSKLTVDKSRWQQGNVFSCSVMHEALHNHYTQKSLSLSPG
B6: VRT-33 (Fc fusion)
chain: SQTEDSESLQRLRDIEDFQAEKKKQNVVYTKWLDGVDVKDHDFRKIVDGNIAYYATPLLNGRGFYDINKDFNRDNDKCAAAVAANMFHYWLDRNRDNVDRFLRQNPEKHGIIELPDGQLKLSDFLNTYESDDGYRDKSKLFDFISNNFNGPVWTDKLLDNYINGYAYNYKYGRTIEDSTKNTSKINFFKEVFNEKILTNNHSIRNQNEFSVLLSEALYTGKAIGLSYGPAGLRHSLGHIISVWGADLDADGNVVAIYVTDSDDKKLTIGDERVGLKRYKISTDDEGRLRLTAYEETHNTGGQIRGLWTLDTGKQAWADYFDKTEQTGTDQAEQDKTHTCPPCPAPEAAGAPSVFLFPPKPKDTLMISRTPEVTCVVVDVSHEDPEVKFNWYVDGVEVHNAKTKPREEQQNSTYRVVSVLTVLHQDWLNGKEYKCKVSNKALKAPIEKTISKAKGQPREPQVYTLPPSRDELTKNQVSLTCLVKGFYPSDIAVEWESNGQPENNYKTTPPVLDSDGSFFLYSKLTVDKSRWQQGNVFSCSVMHEALHNHYTQKSLSLSPG
B7: VRT-44 (Fc fusion)
chain: B6 chain with G117E, G150K, N200I
B8: VRT-34 (Fc fusion)
chain: B6 chain with R93I, D132H
B9: VRT-42 (Fc fusion)
chain: QITSVWTKGVTPLTPEQFRYYNEDVIHAPYLANQGWYDITKTFNGKDNLLCGAATAGNMLHWWFDQNKTEIEAYLKKHPEKQKIIFKNQELFDLKAAIDTKDSQTNSQLFNYFRDKAFPGLSARQLGVFPDLVLDMFINGYYLNVFKTQSTDVNRPYQDKDKRGGIFDAVFTRGVQTTLLTARHDLKNKGLNEISTLIKQELTEGKALALSHTYANVRISHVINLWGADFNAEGNLEAIYVTDSDSRASIGMKKYFVGVNAHGKVAISAKKIEGENIGAQVLGLFTLSSGKDIWQKLSDKTHTCPPCPAPEAAGAPSVFLFPPKPKDTLMISRTPEVTCVVVDVSHEDPEVKFNWYVDGVEVHNAKTKPREEQQNSTYRVVSVLTVLHQDWLNGKEYKCKVSNKALKAPIEKTISKAKGQPREPQVYTLPPSRDELTKNQVSLTCLVKGFYPSDIAVEWESNGQPENNYKTTPPVLDSDGSFFLYSKLTVDKSRWQQGNVFSCSVMHEALHNHYTQKSLSLSPG
B10: VRT-39 (Fc fusion)
chain: ITSVWTKGVTPPAKFTQGEDVFHAPYVANQGWYDITKTFNRKDNLLCGAATAGNMLHWWFDQNKEEIEAYLKKHPEKQKIIFGDQELLDVRKVINTKDSQTNSALFNYFKDKAFPNLSARRLGVFPDLVLDMFINGYYLNVYKTQTTDVNRTYQTKDRRGGIFDAVFTRGVQSKLLTERHDFKEKTLKEISDLIKQELTEGKALGLSHTYANVRINHVINLWGADFDSNGNLEAIYVTDSDTRASIGMKKYFVGVNAAGKVAISAKEIKEDNIGAQVLGLFTLSTGQDIWNQTNDKTHTCPPCPAPEAAGAPSVFLFPPKPKDTLMISRTPEVTCVVVDVSHEDPEVKFNWYVDGVEVHNAKTKPREEQQNSTYRVVSVLTVLHQDWLNGKEYKCKVSNKALKAPIEKTISKAKGQPREPQVYTLPPSRDELTKNQVSLTCLVKGFYPSDIAVEWESNGQPENNYKTTPPVLDSDGSFFLYSKLTVDKSRWQQGNVFSCSVMHEALHNHYTQKSLSLSPG
B11: VRT-38 (Fc fusion)
chain: VTSVWTKGVTPPADFTQGEDVFHAPYVANQGWYDITKTFNRKDNLLCGAATAGNMLHWWFDQNKEYIEAYLKKHPEKQKIIFGDQELLDVRKAINTKGSQKNSELFNYFRDKAFPNLSARRLGVFPDLVLDMFINGYYLNVTKTQTTDVNRTYQEKDKRGGIFDAVFTRGVQSKLLTSRHDFKEKGLKEISDLIKQELTEGKALGLSHTYANVRINHVINLWGADFDSDGNLKAIYVTDSDTRASIGMKKYFVGVNAAGKVAISAKEIKEDNIGAQVLGLFTLSTGQDIWNQTNDKTHTCPPCPAPEAAGAPSVFLFPPKPKDTLMISRTPEVTCVVVDVSHEDPEVKFNWYVDGVEVHNAKTKPREEQQNSTYRVVSVLTVLHQDWLNGKEYKCKVSNKALKAPIEKTISKAKGQPREPQVYTLPPSRDELTKNQVSLTCLVKGFYPSDIAVEWESNGQPENNYKTTPPVLDSDGSFFLYSKLTVDKSRWQQGNVFSCSVMHEALHNHYTQKSLSLSPG

molecular target: pooled human IgG (human); test: cell-based or functional assay

Row | Binder | Enzyme Activity Endpoint Assay: Fab′2 [ng/µL] | Enzyme Activity Endpoint Assay: Fc [ng/µL] | Enzyme Activity Endpoint Assay: IgG [ng/µL] | Enzyme Activity Endpoint Assay: scIgG [ng/µL] | Enzyme Activity Endpoint Assay, Fab′2 [ng/µL] | Enzyme Activity Endpoint Assay, Fc [ng/µL] | Enzyme Activity Endpoint Assay, IgG [ng/µL] | Enzyme Activity Endpoint Assay, scIgG [ng/µL]
1 | B1 | 0 | 101 | 854 | 38 | – | – | – | –
2 | B2 | – | – | – | – | 0 | 28 | 1010 | 23
3 | B3 | 0 | 25 | 1020 | 22 | – | – | – | –
4 | B4 | 0 | 112 | 1030 | 62 | – | – | – | –
5 | B5 | 63 | 243 | 167 | 222 | – | – | – | –
6 | B6 | 0 | 5 | 1040 | 21 | – | – | – | –
7 | B7 | – | – | – | – | 0 | 28 | 1070 | 21
8 | B8 | 0 | 5 | 1020 | 20 | – | – | – | –
9 | B9 | – | – | – | – | 0 | 28 | 985 | 20
10 | B10 | 0 | 27 | 1020 | 22 | – | – | – | –
11 | B11 | 0 | 27 | 990 | 20 | – | – | – | –

— patent US20250027068A1
